# Article PMC3094505
# Read-outs that look alike come from different tables or passages of the source.
# How the values were obtained:
# [1] = biological target: Fluoresceinated Nav1.2IQp, peptide of residues 1901-1927 of the Nav1.2 alpha-subunit; assay: fluorescence polarisation
# [2] = biological target: Fluoresceinated Nav1.2IQp, peptide of residues 1901-1927 of the Nav1.2 alpha-subunit; assay: fluorescence polarisation; remark: listed apart in the source
substance,measurement,setting,value
Paramecium calmodulin N-domain (residues 1-80) (from UniProt P07463 2-81) (domain or fragment),Kd,[1],1.64 µM
same,Kd,[2],70.8 µM
